# Reference: PMC10397247
# T1: 4H2649-AA
# T1 chain: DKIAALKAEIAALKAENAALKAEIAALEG
# T2: 4H3395-AA
# T2 chain: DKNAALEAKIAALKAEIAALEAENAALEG
# T3: 4H570-AA
# T3 chain: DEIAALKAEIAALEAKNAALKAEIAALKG
# T4: 4H310-AA
# T4 chain: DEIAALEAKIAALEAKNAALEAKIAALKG
# T5: 4H485-AA
# T5 chain: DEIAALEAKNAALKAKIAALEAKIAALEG
# T6: 4H891-AA
# T6 chain: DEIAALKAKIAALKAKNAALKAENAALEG
# T7: 4H710-AA
# T7 chain: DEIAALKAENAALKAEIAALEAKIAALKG
# T8: 4H536-AA
# T8 chain: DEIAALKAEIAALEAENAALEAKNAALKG
# T9: 4H2725-AA
# T9 chain: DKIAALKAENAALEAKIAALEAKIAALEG
# T10: 4H3410-AA
# T10 chain: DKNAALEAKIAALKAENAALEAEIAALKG
# T11: 4H94-AA
# T11 chain: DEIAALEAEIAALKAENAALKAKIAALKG
# T12: 4H2865-AA
# T12 chain: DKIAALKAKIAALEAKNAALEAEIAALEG
# T13: 4H2473-AA
# T13 chain: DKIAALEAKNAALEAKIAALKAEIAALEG
# T14: 4H909-AA
# T14 chain: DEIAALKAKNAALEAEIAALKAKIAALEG
# T15: 4H458-AA
# T15 chain: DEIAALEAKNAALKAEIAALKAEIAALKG
# T16: 4H3381-AA
# T16 chain: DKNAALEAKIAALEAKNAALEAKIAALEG
# T17: 4H629-AA
# T17 chain: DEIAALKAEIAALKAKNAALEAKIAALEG
# T18: 4H930-AA
# T18 chain: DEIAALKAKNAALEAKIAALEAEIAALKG
# T19: 4H3753-AA
# T19 chain: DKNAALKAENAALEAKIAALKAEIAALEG
# T20: 4H3865-AA
# T20 chain: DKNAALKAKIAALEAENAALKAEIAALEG
# T21: 4H745-AA
# T21 chain: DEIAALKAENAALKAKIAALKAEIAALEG
# T22: 4H850-AA
# T22 chain: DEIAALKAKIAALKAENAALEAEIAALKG
# T23: 4H3009-AA
# T23 chain: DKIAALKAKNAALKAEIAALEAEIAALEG
# T24: 4H3016-AA
# T24 chain: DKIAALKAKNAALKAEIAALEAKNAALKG
# T25: 4H3120-AA
# T25 chain: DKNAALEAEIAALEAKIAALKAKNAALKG
# T26: 4H3590-AA
# T26 chain: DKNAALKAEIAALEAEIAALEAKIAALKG
# T27: 4H3697-AA
# T27 chain: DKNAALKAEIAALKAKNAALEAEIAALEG
# T28: 4H797-AA
# T28 chain: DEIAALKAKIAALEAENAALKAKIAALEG
# T29: 4H3130-AA
# T29 chain: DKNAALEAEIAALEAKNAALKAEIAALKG
# T30: 4H3165-AA
# T30 chain: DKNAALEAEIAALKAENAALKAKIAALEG
# T31: 4H2438-AA
# T31 chain: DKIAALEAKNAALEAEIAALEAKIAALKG
# T32: 4H2698-AA
# T32 chain: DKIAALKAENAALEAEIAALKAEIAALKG
# T33: 4H_BCR
# T33 chain: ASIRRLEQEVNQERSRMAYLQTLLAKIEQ
# T34: 4H58-AA
# T34 chain: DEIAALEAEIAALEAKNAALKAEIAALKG
# T35: 4H895-AA
# T35 chain: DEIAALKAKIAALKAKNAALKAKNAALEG
# T36: 4H_APH
# T36 chain: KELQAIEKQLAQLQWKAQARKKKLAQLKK
# T37: 4H380-AA
# T37 chain: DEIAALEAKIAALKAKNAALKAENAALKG
# T38: 4H3595-AA
# T38 chain: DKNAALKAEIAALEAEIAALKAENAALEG
# T39: 4H3629-AA
# T39 chain: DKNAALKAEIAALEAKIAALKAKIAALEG
# T40: 4H3969-AA
# T40 chain: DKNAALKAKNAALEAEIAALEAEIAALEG
# T41: 4H483-AA
# T41 chain: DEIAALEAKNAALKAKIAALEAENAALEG
# T42: 4H446-AA
# T42 chain: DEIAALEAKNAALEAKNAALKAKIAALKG
# T43: 4H3939-AA
# T43 chain: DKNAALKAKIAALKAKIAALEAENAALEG
# T44: 4H464-AA
# T44 chain: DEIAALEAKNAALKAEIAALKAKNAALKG
# T45: 4H341-AA
# T45 chain: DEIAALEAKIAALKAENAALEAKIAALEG
# T46: 4H63-AA
# T46 chain: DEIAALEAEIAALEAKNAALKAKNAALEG
# T47: 4H3414-AA
# T47 chain: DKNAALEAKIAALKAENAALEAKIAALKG
# T48: 4H3129-AA
# T48 chain: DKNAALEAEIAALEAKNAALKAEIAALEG
# T49: 4H3782-AA
# T49 chain: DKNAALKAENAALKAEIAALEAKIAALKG
# Columns and labels:
# Assay in all cases: two-hybrid library CCmax;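 note: natural log of median RNA to DNA barcode read ratio; higher means stronger binding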
# [1] = biological target: T1, 4H2649-AA; conditions: mean of both orientations
# [2] = biological target: T2, 4H3395-AA; conditions: mean of both orientations
# [3] = biological target: T3, 4H570-AA; conditions: mean of both orientations
# [4] = biological target: T4, 4H310-AA; conditions: mean of both orientations
# [5] = biological target: T5, 4H485-AA; conditions: mean of both orientations
# [6] = biological target: T6, 4H891-AA; conditions: mean of both orientations
# [7] = biological target: T7, 4H710-AA
# [8] = biological target: T8, 4H536-AA; conditions: mean of both orientations
# [9] = biological target: T9, 4H2725-AA; conditions: mean of both orientations
# [10] = biological target: T10, 4H3410-AA; conditions: mean of both orientations
# [11] = biological target: T11, 4H94-AA; conditions: mean of both orientations
# [12] = biological target: T12, 4H2865-AA; conditions: mean of both orientations
# [13] = biological target: T13, 4H2473-AA; conditions: mean of both orientations
# [14] = biological target: T14, 4H909-AA; conditions: mean of both orientations
# [15] = biological target: T15, 4H458-AA; conditions: mean of both orientations
# [16] = biological target: T16, 4H3381-AA; conditions: mean of both orientations
# [17] = biological target: T17, 4H629-AA; conditions: mean of both orientations
# [18] = biological target: T18, 4H930-AA; conditions: mean of both orientations
# [19] = biological target: T19, 4H3753-AA; conditions: mean of both orientations
# [20] = biological target: T20, 4H3865-AA; conditions: mean of both orientations
# [21] = biological target: T21, 4H745-AA; conditions: mean of both orientations
# [22] = biological target: T22, 4H850-AA; conditions: mean of both orientations
# [23] = biological target: T23, 4H3009-AA; conditions: mean of both orientations
# [24] = biological target: T24, 4H3016-AA; conditions: mean of both orientations
# [25] = biological target: T25, 4H3120-AA; conditions: mean of both orientations
# [26] = biological target: T26, 4H3590-AA; conditions: mean of both orientations
# [27] = biological target: T27, 4H3697-AA; conditions: mean of both orientations
# [28] = biological target: T28, 4H797-AA; conditions: mean of both orientations
# [29] = biological target: T29, 4H3130-AA; conditions: mean of both orientations
# [30] = biological target: T30, 4H3165-AA; conditions: mean of both orientations
# [31] = biological target: T31, 4H2438-AA
# [32] = biological target: T32, 4H2698-AA; conditions: mean of both orientations
# [33] = biological target: T33, 4H_BCR; conditions: mean of both orientations
# [34] = biological target: GCN2_T
# [35] = biological target: 4H_GCN4
# [36] = biological target: T34, 4H58-AA
# [37] = biological target: T35, 4H895-AA; conditions: mean of both orientations
# [38] = biological target: T36, 4H_APH
# [39] = biological target: T37, 4H380-AA; conditions: mean of both orientations
# [40] = biological target: T38, 4H3595-AA; conditions: mean of both orientations
# [41] = biological target: T39, 4H3629-AA; conditions: mean of both orientations
# [42] = biological target: T40, 4H3969-AA; conditions: mean of both orientations
# [43] = biological target: T41, 4H483-AA; conditions: mean of both orientations
# [44] = biological target: T42, 4H446-AA; conditions: mean of both orientations
# [45] = biological target: T43, 4H3939-AA; conditions: mean of both orientations
# [46] = biological target: T44, 4H464-AA; conditions: mean of both orientations
# [47] = biological target: T45, 4H341-AA; conditions: mean of both orientations
# [48] = biological target: T46, 4H63-AA; conditions: mean of both orientations
# [49] = biological target: T47, 4H3414-AA; conditions: mean of both orientations
# [50] = biological target: T48, 4H3129-AA
# [51] = biological target: T49, 4H3782-AA; conditions: mean of both orientations
# Chain of 4H_GCN4 (chain, as listed by the source): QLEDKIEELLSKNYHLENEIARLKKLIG
binder,measurement,setting,value
DKIAALEAKNAALEAEIAALEAKIAALKG [4H2438-AA],interaction score,[1],-0.664
same,interaction score,[2],0.314
same,interaction score,[3],0.233
same,interaction score,[4],-0.376
same,interaction score,[5],2.05
same,interaction score,[6],-1.67
same,interaction score,[7],-0.823
same,interaction score,[8],-1.47
same,interaction score,[9],1.32
same,interaction score,[10],0.0321
same,interaction score,[11],1.28
same,interaction score,[12],-0.236
same,interaction score,[13],1.99
same,interaction score,[14],0.42
same,interaction score,[15],2.03
same,interaction score,[16],-1.06
same,interaction score,[17],-1.42
same,interaction score,[18],0.452
same,interaction score,[19],1.89
same,interaction score,[20],-1.16
same,interaction score,[21],1.6
same,interaction score,[22],0.962
same,interaction score,[23],1.88
same,interaction score,[24],-0.613
same,interaction score,[25],-0.892
same,interaction score,[26],-0.136
same,interaction score,[27],-1.23
same,interaction score,[28],-1.67
same,interaction score,[29],-0.561
same,interaction score,[30],-1.17
same,interaction score,[31],1.62
same,interaction score,[32],1.25
DEIAALEAEIAALEAKNAALKAEIAALKG [4H58-AA],interaction score,[33],-2.14
same,interaction score,[34],-0.172
same,interaction score,[35],0.011
same,interaction score,[36],1.75
same,interaction score,[37],-0.545
same,interaction score,[38],-1.68
DKNAALEAEIAALEAKNAALKAEIAALEG [4H3129-AA],interaction score,[39],-1.83
same,interaction score,[40],-1.39
same,interaction score,[41],-0.839
same,interaction score,[42],-1.84
same,interaction score,[43],-2.19
same,interaction score,[44],-2.05
same,interaction score,[45],-1.82
same,interaction score,[46],-1.78
same,interaction score,[47],2.19
same,interaction score,[48],-2.14
same,interaction score,[49],2.24
same,interaction score,[50],-1.5
same,interaction score,[51],-1.55
